# According to the supplement of paper PMC9170038:
# System: MS2 coat protein
# Experiment: apparent KD of MS2 coat protein; designed switch direction (-1 OFF switch, 1 ON switch): 1; higher = weaker reporter binding
# Outline: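 Designed RNA switches sharing common flanks were transcribed on Illumina chips by stalled E. coli RNA polymerase. They were titrated with SNAP-549-labelled MS2 coat protein, from 0.7 or 1.5 nM doubling to 3 µM, in Tris-HCl pH 7.5 buffer with KCl, MgCl2, BSA, DTT, tRNA and Tween-20. Titrations ran without input, with 200 uM small-molecule ligand, or with an oligonucleotide input. The apparent KD of each design is the median over its clusters, after curve-fitting of normalised cluster fluorescence.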
# [1] = Eterna round: R95, input ligand: FMN 200 uM
# [2] = Eterna round: R95, input ligand: microRNA oligo, concentration not stated
# [3] = Eterna round: R95, input ligand: none
# [4] = input ligand: microRNA oligo, concentration not stated
Sequence,apparent KD of MS2 coat protein [1] [nM],apparent KD of MS2 coat protein [2] [nM],apparent KD of MS2 coat protein [3] [nM],apparent KD of MS2 coat protein (input ligand: FMN 200 uM) [nM],apparent KD of MS2 coat protein [4] [nM],apparent KD of MS2 coat protein (input ligand: none) [nM]
GUAGCAUGCACCGAGGAUAUUCAUAUUAAAACAUGAGGAUCACCCAUGUAGGCCAAAAGGCCUUGGGAGAAGGCGGACAUGCUAC [Xeonanis - 21] (puzzle: Same State 2),23.5,178,422,,,
"CGACACACGGCAGGAUAUCGAUUCCAAAGGAAUCGAGAAGGGCCUCAUGUCGUGGAAACGUGACAUGAGGAUCACCCAUGUCGC [Omei SS(NG)1 Cv17] (Eterna round: R96, puzzle: Same State NG 1)",,,,17.2,11,16.9
UUCUAACAUGAGGAUCACCCAUGUCAUAUGACAUGAGGAUAUGUACAGACUUCGGUCUGUACAGAAGGCAUGUUAG [SS1 - 1011 Omei Mod 7] (puzzle: Same State 1),31.6,10.7,20.5,,,
"GAUCGUUUGAUAGGAUAUCGCUAUACAUGAGGAUCACCCAUGUUUACCACGCUGGUUUUUCAUACCGAGAAGGAUUCUGAUGAG [salish99_SSNG02_r04_008] (Eterna round: R96, puzzle: Same State NG 2)",,,,64.8,49.7,56.1
"GCUAGGAUUAAAGCCAACAUGAGGAUCACCCAUGUAUGUUGGUAGGAUAUCGUUUGCUUUGCAAACGAGAAGGGCUAACCUAGC [JL SSNG3 1.23] (Eterna round: R96, puzzle: Same State NG 3)",,,,70.6,57.8,62.1
"UGGUACAUGGGAGGAUAUCCUCAGGAGACAUGAGGAUCACCCAUGUAUUAUAAGCCGAAAGGCAUGGAGAAGGCCCAUGUACCU [JL SSNG1 3.82] (Eterna round: R96, puzzle: Same State NG 2)",,,,14.1,112,123
"GUUACAUGAGGAUCACCCAUGUAUGUGUGGGAGUAAGUGUCUUAGGAUAUCUGUUAUUUAAUCUAAGAGAAGGAAGAUUGUUGU [JMF's solution 45] (Eterna round: R96, puzzle: Same State NG 3)",,,,113,66.7,94.1
"GGUAGGUUACUACCAAACAUGAGGAUCACCCAUGUAGGUGGGAAGGAUAUGGUACCUUUUAGGUACCAGAAGGUCCAUACAAUU [NGss mod of JL's mod of Fisker] (Eterna round: R96, puzzle: Same State NG 3)",,,,318,154,203
"GUUACAUGAGGAUCACCCAUGUAUGUGUGGGAGUAAGUGUCUUAGGAUAUCUGUUAUUUAAUAUAAGAGAAGGAAGAUUGUUGU [JMF's solution 44] (Eterna round: R96, puzzle: Same State NG 3)",,,,123,76.5,108
CCGAUGUGGGUACAGGAUAUGUGGGCCUCCACAUGAGGAUCACCCAUGUCGGAGGCAAUGCGGCUACAGAAGGGUGCGAGCUCGA [Tileorat] (puzzle: Same State 2),14.1,10.9,13.5,,,
"AUAUGAGGAGCAGGAUAUGCGAAGAAGAAAGAAGCAGAAGGGCUCAUGGGACGACAUGAGGAUCACCCAUGUACUUCGCGAUGA [AK SSNG1-V2-6] (Eterna round: R96, puzzle: Same State NG 1)",,,,133,278,538
AUAAAUAAACAUGAGGAUCACCCAUGUGUUAUAUAAGCAAAUAAAUAAAUAAAUAAAUAAAUAAAUAAAUAAAUAAA [RNA Sequence] (puzzle: Sensor for hsa-mir-208a version 2),25.5,26.1,29.2,,,
"GCGGACUUCACAUGAGGAUCACCCAUGUUGCGGAGACGCAAUGAGGAUAUCGAUGGGUUUCCCGUCGAGAAGGCAUAAAUCCGC [JL SSNG3 3.93 mod 5] (Eterna round: R96, puzzle: Same State NG 3)",,,,25.2,30,49.8
"UGCUAUCGAAAACGAUAGCUAAAGUUUGUACAUGAGGAUCACCCAUGUUGUACAAGCUUUUUGCUCGUCUUAAAUAA [JL SD Zipper 16] (Eterna round: R96, puzzle: Sensor for hsa-mir-208a)",,,,67.1,15.2,62.4
"GCCGCGAAGCGAGGAUAUACUGUCCGAGAGCCGCAAACAUGAGGAUCACCCAUGUAGGUGAGACCGUAGAAGGCGUAAGCGCAA [Eternabot solution 19] (Eterna round: R96, puzzle: Same State NG 2)",,,,46,235,331
"GUGGUCAGACAUGAGGAUCACCCAUGUGGAAUAAAUAACGAACAGGAUAUUCAAUAUAGGAUAUAGAAGAAGGGUUGAUUGGUG (Eterna round: R96, puzzle: Same State NG 3)",,,,204,171,187

Sequence,apparent KD of MS2 coat protein [1] [nM],apparent KD of MS2 coat protein [2] [nM],apparent KD of MS2 coat protein [3] [nM],apparent KD of MS2 coat protein (input ligand: FMN 200 uM) [nM],apparent KD of MS2 coat protein [4] [nM],apparent KD of MS2 coat protein (input ligand: none) [nM]
"ACAUGAGAAAGAGGAUAUGUUGUACCUACAUGUGACAUGAGGAUCACCCAUGUGGUAAGUAUGAUACAGAAGGCUUAGAUAUGU [Equivalance 61 - Jieux - Same State NG 2] (Eterna round: R96, puzzle: Same State NG 2)",,,,15.1,17.8,25.6
"UUGAAGAAUAAAGGAUAUUGAAUACAUAUGUUUAACAUGAGGAUCACCCAUGUGGGUUGCGGUAUCGAGAAGGUUAAUUACUAG [Mat - Same State NG 2 - JL mod - D11] (Eterna round: R96, puzzle: Same State NG 2)",,,,151,124,139
"GAGAGAGGGUGAGGAUAUUUGGUGAUAAUGAUGGGAGAAGGCACAGACAUGAGGAUCACCCAUGUGGGAAUAAUCCAGAGAGAG [Parity 11 - Jieux - Same State NG 1] (Eterna round: R96, puzzle: Same State NG 1)",,,,582,182,410
"CACAUGAGGAUCACCCAUGUGAGGCGGCAAUAAAACCGCGCACAGGAUAUAGCGCUAUAAAUGCACUAGAAGGGUGAUUAGAAC [Zabeceis] (Eterna round: R96, puzzle: Same State NG 3)",,,,1680,69.6,36.4
CGGGUACAUGAGGAUCACCCAUGUUGGAGUAAUGCAGGAUAUGUGGGACGAGGUUAUAAAACAGAAGGGCAAGGAG [JR_SS!_Sub011] (puzzle: Same State 1),53.5,62.9,67.2,,,
GUUAUACAUGAGGAUCACCCAUGUCAAUGUAGUCGAGGAUAUGGGCAGCUAUGAGGCGUACUAGAAGGCGAUGAGU [JL-ss1-3.14 ViennaUCT mod] (puzzle: Same State 1),,122,,,,
"GCUAGAAAUAAUGCCAACAUGAGGAUCACCCAUGUAUGUUGGCAGGAUAUCGUUUGCAAAGCAAACGAGAAGGGCUAAACUAGC [Mat - Same State NG 3 - JL Mod - D8] (Eterna round: R96, puzzle: Same State NG 3)",,,,236,237,338
AGCUAUCGAAAACGAUAGCAGAAGCAUGUACAUGAGGAUCACCCAUGUCAUGUACAAGCUUUUUGCUCGUCUUAAAA [Zipper 23 - 1] (puzzle: Sensor for hsa-mir-208a),360,17.8,703,,,
"GUGGUUCUCGUAGGAUAUGUAGGAUAUCCCUACAUGAGGAUCACCCAUGUUCGCAUGGGAGAAGGACAGAAGGACGAUCGCUAA [pwkr ssNG2 2FMN + 1F5.16] (Eterna round: R96, puzzle: Same State NG 2)",,,,20.9,11.1,53.5
GGCAUACAUGAGGAUCACCCAUGUUCAACCUAGAUAGGAUAUGGGCCUCUUGUAUUAGGCCCAGAAGGAUCUGUAA [Regea] (puzzle: Same State 1),,86.4,,,,
"GGUGGGUUACUACCCACACAUGAGGAUCACCCAUGUAUUGGGAAGGAUAUGGUGCCUGUGUGGUACCAGAAGGUCCUGAAGGUG [SS-NG3-LRO18] (Eterna round: R96, puzzle: Same State NG 3)",,,,1360,1030,2130
AGUCCGGCCUGAGCUGGACUGAAGCAUGUACAUGAGGAUCACCCAUGUUCAUGUGCAGGCUUUUUGCUCGUCUUGUG [JL-shm-2.04 JL mod] (puzzle: Sensor for hsa-mir-208a),97.7,13.4,124,,,
"UCAAUCAUGUAAGGAUAUGCAGCCGAAACGGCUGCAGAAGGUACUAUAAUUACAUGAGGAUCACCCAUGUUAUAAAAUUUAAAU [Mat - Same State NG 1 - JL mod - D68] (Eterna round: R96, puzzle: Same State NG 1)",,,,35.5,46,123
UCUUGGUUUUUGCUCGUUUUUUGUGUUGAACAUGAGGAUCACCCAUGUAUUGUACGGUCCGAUUUGAUAAUGGUCCG [JMF 21] (puzzle: Sensor for hsa-mir-208a),25.8,14.8,27,,,
"GGGAGAGACGCAGGAUAUGGUGAGGAUUACCCACUAGAAGGGUGGACAUGAGAAUCGAACAUGAGGAUCACCCAUGUUCUGAGG (Eterna round: R96, puzzle: Same State NG 1)",,,,64,44.3,66
